Molecular target: HLA-A2 molecules on T2 cells (human)
Experiment: T2 cell HLA-A2 upregulation assay, flow cytometry, peptide 25 µg/ml; negative control
Settings: remark: other sources report otherwise

T2 binding (MFI): 260 MFI
Binder: HLFGYSWYK [CAP-7 peptide]
